According to paper doi:10.1101/2021.11.04.467353, “SHIP164 is a Chorein Motif Containing Lipid Transport Protein that Controls Membrane Dynamics and Traffic at the Endosome-Golgi Interface” (bioRxiv, 2021):

B1: 3XFLAG-SHIP164^Δ901-1099 (natural protein)
chain: not shown
notes: SHIP164 (UHRF1BP1L), human, codon-optimised ORF from Genscript, lacking the predicted unstructured segment residues 901-1099; also called 3×FLAG-SHIP164_(Δ901-1099); UHRF1BP1L; source: Expi293F, transfected, purified (anti-FLAG M2 resin, Superdex 200 gel filtration); not shown: 3xFLAG, N-terminal, kept
B2: MBP-SHIP164 fusion (MBP fused to the N-terminus of SHIP164_(Δ901–1099)) (natural protein)
chain: not shown
notes: SHIP164 (UHRF1BP1L), human, codon-optimised ORF, lacking residues 901-1099; Probably expressed in Expi293F and purified like m1, and it may also carry a 3xFLAG tag

Biological target: the molecule itself
Assay: negative-stain electron microscopy; 2D class averages of negatively stained purified protein; 3XFLAG-SHIP164_(Δ901-1099) at 50 nM, 2% uranyl acetate; the MBP fusion locates the N-termini at the two ends of the rod

| Protein | stoichiometry N |
| --- | --- |
| B1 | 2 |
| B2 | 2 |
